Assay results: paper doi:10.1101/2024.06.06.597810 (bioRxiv, 2024)

Biological target: T1, SARS-CoV-2 spike stem helix peptide (residues 1146-1159), displayed on yeast (SARS-CoV-2)
T1 chain: DSFKEELDKYFKNH
Experiment: flow cytometry on cells
Conditions: partners not purified

B1: S2P6 in single-chain variable fragment (scFv) format (scFv, V domains shown)
VH: EVQLVQSGAEVKKPGASVKVSCKASGYTFTSQYMHWVRQAPGQGLEWIGIINPSGVHTSYAQKFQGRVTLTRDTSTSTLYMELSSLRSEDTAVYYCARGSPKGAFDYWGQGTLVTVSS
VL: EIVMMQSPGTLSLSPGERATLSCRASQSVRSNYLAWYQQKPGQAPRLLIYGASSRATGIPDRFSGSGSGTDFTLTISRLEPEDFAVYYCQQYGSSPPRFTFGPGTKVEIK
notes: not shown: HA, C-terminal, kept
- binding result: binds
